According to patent US8629107B2, “Genes and proteins associated with angiogenesis and uses thereof” (National Jewish Health, priority 2005, dated 2014):

Molecular target: T1, Notch1 (Mus musculus, UniProt Q01705)
T1 construct: expressed in transfected cells; host or cells: human kidney 293T cells, transient transfection (LT-1 liposomes)
Experiment: Notch1 processing assay in human kidney 293T cells
Type: cell-based
Conditions: 293T cells co-transfected with Notch1, vs cells solely expressing Notch1; anti-Myc immunoblot
Description: To monitor the effects of MAGP-2 on the processing and S3 cleavage of Notch1, human kidney 293T cells were transiently transfected in 6-well plates with LT-1 liposomes containing 0.5 μg/well of Notch1 (pCS2+mN1FL6MT), 0.5 μg/well Jagged-1 (pCS2+Jag1-6MT), or 1.5 μg/well of MAGP-2 (pcDNA3.1-MAGP-2/Myc-His) in all combinations. Forty-eight h post-transfection, the cells were washed with ice-cold PBS, lysed immediately in Buffer H/1% Triton X-100 [500 μl/well; (Schiemann et al, 2002)], and incubated on ice for 30 min. Afterward, insoluble material was removed by microcentrifugation and 100 μl of the resulting clarified extract was fractionated through 6% SDS-PAGE gels. The fractionated proteins were transferred electrophoretically to nitrocellulose and probed with anti-Myc 9E10 monoclonal antibodies (Covance, Princeton, N.J.) to visual Notch1 cleavage species.
Activation of Notch1 signaling involves three proteolytic processing events, termed S1, S2, and S3, that produce three distinct Notch1 fragments, termed TMIC, NEXT, and NICD, respectively (Mumm et al, 2000). […] The inventors tested this possibility by transiently transfecting human 293T cells with cDNAs encoding Myc-tagged versions of Notch1, Jagged-1, and MAGP-2 in all combinations, and subsequently monitored changes in NICD production and accumulation by immunoblot analyses using anti-Myc monoclonal antibodies. […]

T1 sequence (Q01705 19-2531): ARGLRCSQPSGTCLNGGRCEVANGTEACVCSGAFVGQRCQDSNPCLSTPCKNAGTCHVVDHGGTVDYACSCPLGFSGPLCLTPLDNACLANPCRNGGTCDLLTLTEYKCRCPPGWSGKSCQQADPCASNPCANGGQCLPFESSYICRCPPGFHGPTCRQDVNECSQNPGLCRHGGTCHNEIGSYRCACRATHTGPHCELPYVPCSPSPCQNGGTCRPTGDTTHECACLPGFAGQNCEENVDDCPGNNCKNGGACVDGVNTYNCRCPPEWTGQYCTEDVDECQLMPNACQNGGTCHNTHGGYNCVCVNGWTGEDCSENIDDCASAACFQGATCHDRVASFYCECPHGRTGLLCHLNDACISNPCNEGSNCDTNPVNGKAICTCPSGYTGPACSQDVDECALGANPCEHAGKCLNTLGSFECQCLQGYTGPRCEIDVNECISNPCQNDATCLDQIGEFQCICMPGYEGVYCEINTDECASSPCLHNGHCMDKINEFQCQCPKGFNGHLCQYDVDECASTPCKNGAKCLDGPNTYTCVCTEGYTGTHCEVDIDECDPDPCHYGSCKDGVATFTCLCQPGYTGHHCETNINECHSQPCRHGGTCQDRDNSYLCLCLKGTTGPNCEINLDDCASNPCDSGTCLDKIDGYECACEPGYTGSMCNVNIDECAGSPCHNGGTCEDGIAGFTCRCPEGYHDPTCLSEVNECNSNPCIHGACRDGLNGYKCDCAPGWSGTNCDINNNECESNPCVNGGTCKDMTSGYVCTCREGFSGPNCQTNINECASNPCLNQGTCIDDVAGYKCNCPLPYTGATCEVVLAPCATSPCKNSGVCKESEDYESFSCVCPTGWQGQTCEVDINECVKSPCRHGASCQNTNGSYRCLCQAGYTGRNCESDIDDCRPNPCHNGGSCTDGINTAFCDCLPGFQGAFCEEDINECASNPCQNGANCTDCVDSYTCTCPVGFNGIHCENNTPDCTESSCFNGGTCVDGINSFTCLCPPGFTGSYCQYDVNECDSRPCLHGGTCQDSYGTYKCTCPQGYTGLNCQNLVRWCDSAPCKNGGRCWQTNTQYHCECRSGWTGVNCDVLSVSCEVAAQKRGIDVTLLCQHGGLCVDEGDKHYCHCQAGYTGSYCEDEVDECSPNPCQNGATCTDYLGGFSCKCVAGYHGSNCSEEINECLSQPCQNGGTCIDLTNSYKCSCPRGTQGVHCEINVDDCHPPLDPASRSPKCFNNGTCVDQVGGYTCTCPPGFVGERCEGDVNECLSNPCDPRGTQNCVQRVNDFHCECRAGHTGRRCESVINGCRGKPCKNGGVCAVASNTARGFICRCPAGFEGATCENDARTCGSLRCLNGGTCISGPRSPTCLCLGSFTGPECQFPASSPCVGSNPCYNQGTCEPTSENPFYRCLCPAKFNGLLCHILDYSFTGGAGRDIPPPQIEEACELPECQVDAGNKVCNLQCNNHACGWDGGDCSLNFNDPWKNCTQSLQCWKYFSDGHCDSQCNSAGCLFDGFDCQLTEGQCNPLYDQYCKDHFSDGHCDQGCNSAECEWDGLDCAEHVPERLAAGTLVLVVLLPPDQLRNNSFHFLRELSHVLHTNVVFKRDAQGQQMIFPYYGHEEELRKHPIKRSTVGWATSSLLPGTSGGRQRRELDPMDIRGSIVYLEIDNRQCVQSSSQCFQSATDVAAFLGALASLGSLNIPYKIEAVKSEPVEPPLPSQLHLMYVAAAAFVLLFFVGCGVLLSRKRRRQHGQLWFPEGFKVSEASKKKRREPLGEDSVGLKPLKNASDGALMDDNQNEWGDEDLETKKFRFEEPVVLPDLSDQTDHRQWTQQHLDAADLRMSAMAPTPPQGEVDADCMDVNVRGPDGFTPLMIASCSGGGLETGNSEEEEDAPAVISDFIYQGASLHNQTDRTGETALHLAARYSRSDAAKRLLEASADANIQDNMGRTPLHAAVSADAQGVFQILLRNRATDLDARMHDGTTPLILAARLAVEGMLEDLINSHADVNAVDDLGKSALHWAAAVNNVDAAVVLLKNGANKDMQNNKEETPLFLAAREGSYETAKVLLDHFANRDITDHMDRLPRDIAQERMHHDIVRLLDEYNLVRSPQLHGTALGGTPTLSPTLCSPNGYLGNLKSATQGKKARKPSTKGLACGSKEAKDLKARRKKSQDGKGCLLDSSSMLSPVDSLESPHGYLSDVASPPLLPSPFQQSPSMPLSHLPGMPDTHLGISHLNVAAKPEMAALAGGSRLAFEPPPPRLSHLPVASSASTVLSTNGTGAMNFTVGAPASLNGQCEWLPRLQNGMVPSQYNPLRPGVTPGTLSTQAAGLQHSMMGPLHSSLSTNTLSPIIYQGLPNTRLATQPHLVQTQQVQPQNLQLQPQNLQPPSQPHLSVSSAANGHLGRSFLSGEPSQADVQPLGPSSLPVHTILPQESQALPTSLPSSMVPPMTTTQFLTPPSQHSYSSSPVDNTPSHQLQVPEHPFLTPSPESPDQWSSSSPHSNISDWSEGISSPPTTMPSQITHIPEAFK

Notch1 processing and production of NICD: significantly enhanced
B1: Jagged-1: Notch1 ligand; Myc-tagged murine Jagged-1 cDNA transiently transfected (protein)
chain: QFELEILSMQNVNGELQNGNCCGGVRNPGDRKCTRDECDTYFKVCLKEYQSRVTAGGPCSFGSGSTPVIGGNTFNLKASRGNDRNRIVLPFSFAWPRSYTLLVEAWDSSNDTIQPDSIIEKASHSGMINPSRQWQTLKQNTGIAHFEYQIRVTCDDHYYGFGCNKFCRPRDDFFGHYACDQNGNKTCMEGWMGPDCNKAICRQGCSPKHGSCKLPGDCRCQYGWQGLYCDKCIPHPGCVHGTCNEPWQCLCETNWGGQLCDKDLNYCGTHQPCLNRGTCSNTGPDKYQCSCPEGYSGPNCEIAEHACLSDPCHNRGSCKETSSGFECECSPGWTGPTCSTNIDDCSPNNCSHGGTCQDLVNGFKCVCPPQWTGKTCQLDANECEAKPCVNARSCKNLIASYYCDCLPGWMGQNCDININDCLGQCQNDASCRDLVNGYRCICPPGYAGDHCERDIDECASNPCLNGGHCQNEINRFQCLCPTGFSGNLCQLDIDYCEPNPCQNGAQCYNRASDYFCKCPEDYEGKNCSHLKDHCRTTTCEVIDSCTVAMASNDTPEGVRYISSNVCGPHGKCKSQSGGKFTCDCNKGFTGTYCHENINDCESNPCKNGGTCIDGVNSYKCICSDGWEGAHCENNINDCSQNPCHYGGTCRDLVNDFYCDCKNGWKGKTCHSRDSQCDEATCNNGGTCYDEVDTFKCMCPGGWEGTTCNIARNSSCLPNPCHNGGTCVVNGDSFTCVCKEGWEGPICTQNTNDCSPHPCYNSGTCVDGDNWYRCECAPGFAGPDCRININECQSSPCAFGATCVDEINGYQCICPPGHSGAKCHEVSGRSCITMGRVILDGAKWDDDCNTCQCLNGRVACSKVWCGPRPCRLHKSHNECPSGQSCIPVLDDQCFVRPCTGVGECRSSSLQPVKTKCTSDSYYQDNCANITFTFNKEMMSPGLTTEHICSELRNLNILKNVSAEYSIYIACEPSLSANNEIHVAISAEDIRDDGNPVKEITDKIIDLVSKRDGNSSLIAAVAEVRVQRRPLKNRTDFLVPLLSSVLTVAWVCCLVTAFYWCVRKRRKPSSHTHSAPEDNTTNNVREQLNQIKNPIEKHGANTVPIKDYENKNSKMSKIRTHNSEVEEDDMDKHQQKVRFAKQPVYTLVDREEKAPSGTPTKHPNWTNKQDNRDLESAQSLNRMEYIV
modifications: left off: small tags and cut ends
notes: Notch1 ligand; Myc-tagged murine Jagged-1 cDNA transiently transfected
